Data set [1] relates to T1, His6-BldC (Streptomyces coelicolor), ORF:188ed25c.
T1 sequence: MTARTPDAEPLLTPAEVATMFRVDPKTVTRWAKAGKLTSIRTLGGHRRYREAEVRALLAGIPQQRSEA
Put plainly: EMSA. The following applies: FP: 25 mM Tris pH 7.5, 150 mM NaCl, 1 nM F-DNA, 25 C; footprinting: 10 mM Tris HCl pH 7.8, 150 mM NaCl, 2 mM DTT, 1 ug poly(dI-dC), 10% glycerol (none for …). In general terms: A gel shift assay detects complexes by their altered migration in electrophoresis.

Data set [2] has the same test system. The data set can be described thus: DNase I footprinting. The following applies: FP: 25 mM Tris pH 7.5, 150 mM NaCl, 1 nM F-DNA, 25 C; footprinting: 10 mM Tris HCl pH 7.8, 150 mM NaCl, 2 mM DTT, 1 ug poly(dI-dC), 10% glycerol (none for …).
Data set [3] has the same test system. Put plainly: hydroxyl radical footprinting. The following applies: FP: 25 mM Tris pH 7.5, 150 mM NaCl, 1 nM F-DNA, 25 C; footprinting: 10 mM Tris HCl pH 7.8, 150 mM NaCl, 2 mM DTT, 1 ug poly(dI-dC), 10% glycerol (none for …).
Data set [4] deals with His6-BldC (Streptomyces coelicolor) (UniProt A0A0M7QSG5). The data set can be described thus: fluorescence polarization. The following applies: FP: 25 mM Tris pH 7.5, 150 mM NaCl, 1 nM F-DNA, 25 C, footprinting: 10 mM Tris HCl pH 7.8, 150 mM NaCl, 2 mM DTT, 1 ug poly(dI-dC), 10% glycerol (none for …). (In general: In fluorescence polarisation assays a small probe gives low polarisation when free and higher when bound to something large.)

For data set [5], the target named is His6-BldC(E16R) (Streptomyces coelicolor) (UniProt A0A0M7QSG5). Put plainly: fluorescence polarization. Conditions: FP: 25 mM Tris pH 7.5, 150 mM NaCl, 1 nM F-DNA, 25 C; footprinting: 10 mM Tris HCl pH 7.8, 150 mM NaCl, 2 mM DTT, 1 ug poly(dI-dC), 10% glycerol (none for …).
Data set [6] deals with His6-SeMet BldC(L43M-L58M) (Streptomyces coelicolor) (UniProt A0A0M7QSG5). The data set can be described thus: fluorescence polarization. The following applies: FP: 25 mM Tris pH 7.5, 150 mM NaCl, 1 nM F-DNA, 25 C; footprinting: 10 mM Tris HCl pH 7.8, 150 mM NaCl, 2 mM DTT, 1 ug poly(dI-dC), 10% glycerol (none for …).
The target in data set [7] is Tag-free BldC (Streptomyces coelicolor) (UniProt A0A0M7QSG5). Put plainly: fluorescence polarization. Conditions: FP: 25 mM Tris pH 7.5, 150 mM NaCl, 1 nM F-DNA, 25 C; footprinting: 10 mM Tris HCl pH 7.8, 150 mM NaCl, 2 mM DTT, 1 ug poly(dI-dC), 10% glycerol (none for …).
The mark [8] stands for this setting: stoichiometry 4:1, WT BldC, tag status not stated.

Consider “CGAGAGGATCATGTGAGTTCTCCTGGTTCACGGGGACAGTCACCATGAGTACTTCCAGGCTCACAGCATGTATCCATACGATAAAAGGTGCAAATGGGGGAAATTCGACCGAATTACCTCAGGTGGCGGAGCGCTCCTTGGGCCGCTCGGGTGTGCCGCGAGCCAGTACCCTGGCGGTTCAC (double strand) [smeA-sffA promoter PCR probe]”, for which the binding result in data set [1], in data set [2] and in data set [3] was “binds” in each case.
The Kd is the equilibrium constant for the complex coming apart. As to “ATTCGGACAATTCGGACAATTCGGACAATTCGGACA (double strand) [36mer opt]”, the Kd in data set [4] (setting [8]) came to 20 nM.
Regarding “TAATTCGGTCGAATTTCCCCCATTTGCACCTTTTATCGTA (double strand) [smeA-ssfA site]”, the Kd in data set [4] (setting [8]) is 60 nM.
As for “GAGAACGGACACCAGGCCTCCTGGGGTGCGGGGACGGGGCCGGCTCATGGGGTTTAAGCCGGGACGAACCGTGCTTTCAAGGTCACAGTCGTCTTCGGCACCGAACGCGTCCGCCTTTAGAGAATGATCACGATCTGGTGAGTAACAATCCGAGCAATTCGGACACACTGTCGATCATTCGAAGATCGAACGGTTCCGCACTTTGTCGATACGAGGCCGAAAGTGGCCGTGTCGACAAAGTGACGGAACCTCCTCCGGACGTGCGGACCCCCTGCCCGGAACGATGAACGACGGCTGG (double strand) [whiI promoter PCR probe]”, in data set [2], the binding entry is reported as “binds”.
Consider “TTCAATTCGGACAATTCGGACA / AATGTCCGAATTGTCCGAATTG [whiI opt 22mer (FP)]”, for which the Kd in data set [4] amounted to 18.2 nM; in data set [4] (stoichiometry 2:1 (Fig. 5a)), 20 nM; in data set [5], 140 nM; in data set [6], 19.6 nM; in data set [7], 16.5 nM.
Regarding “TTCAATTCGTACAATTCGTACA / AATGTACGAATTGTACGAATTG [whiI opt bp 8 and 17 to T]”, in data set [4], the Kd came to 50 nM.
Still for that read-out and setting: the result for “TTCAATTCGCACAATTCGCACA / AATGTGCGAATTGTGCGAATTG [whiI opt bp 8 and 17 to C]” reads 115 nM.
